From a protein production outcome set (Wang et al. 2014) come the findings set out here.

A short description of this series: label from the status in PepcDB records.
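Also: failed if final PepcDB status was selected cloned or expressed and not failed if soluble or beyond.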

On to “MSRKVILTCAVTGNAPFNPKHPSMPITPAQIADACVEAAKAGASVAHIHVRDPKTGGGSRDPVLFKEVVDRVRSSGTDIVLNLTCGLGAFLLPDPEDESKALPESDVVPVAERVKHLEDCLPEIASLDITTGNQVEGKLEFVYLNTTRTLRAMARRFQELGIKPELEVFSPGDILFGKQLIEEGLIDGVPLFQMVLGVLWGAPASTETMIYQRNLIPANAQWAAFGIGRDQMPMMAQAALLGGNVRVGLEDNLYLSRGVFATNGQLVERARTVIEHLGMSVATPDEARDIMGLSRPA”, for which the protein production entry is “not failed”.

“MSRLFHQRGNVMPIHVITALPGGGKTAIMVEMLEAEAKIGARPLFAAGIDGLQPGLATVLDDPSQWNAKDAHGNYVVPDGSLVFVDEAWKWFGMKYGGSGMRQTTPDHVRALAEHRHRGLDFVWTTQQAHKQLYSFVHGLIGRHTFIKRRFGTRFLDVWEWDEMVENVNSASNREFSRHQVRTLPKHVYSLYKSAEIHT”: the protein production entry is given as “failed”. The same measure for “MSRMMKMGTGTLRVILWFASILIWFSIFVPIEYLVNYFSGETTNYILHSDDFMMPIKTHVASTNAIASFPSGLYTTLMIIGYILMLVGVFITIQAVSAIVRHIQEQDYFSTENSQQMNRIVKGQIWILGSSLLMACANQLTVSWLYRISQFGLGWDNLLSAFVDLIIFALIAMIYTRAVNMKTESDLTI”: “failed”. The same measure for “MSRNHLPFSAGELEALPLFRFVPLECIEGILEHSCVVSLERGERFEPAGPLGRTIHLILDGRLALYYDVRERDDTPLHLERGDIVGQSLVSGEPEVPCTLVAAEETRLMILEEDLIWSLAQASHAAACNLLGILLRGRGGSPQESFSGTVRDYALRNQAVVDPLTGFQSRRWLEGILSRQVDRFTANGRPLSLVMIDIDGFRAFNERHGRAGGDRALHDVAKTLRNSLRPGELVARYGGDTFAVLLPETEPSTAWMIADRLRQRLMRTVIDMGDGAMLPPLSISAGVAEATPGIDGPTIADNALAALDRAKAAGGNTVSR”: “failed”; for “MSRPRLELGTWGKITRTEVAEGKHRARARFRDFTGKTRQVEAYGASGAKAERQLLANLRSRVESAGDTISGNTTVSSLGKIWTGNLGKSDEHTEQTIERYESIVEKIIGPALGEYLIMEATVSRVDGFLRALADKTPGRAKTTKSVLKSMFDLAVRHDALRTNPVREVRLPTKRKKPVQALTIDEVGTLREGLRKWQAADGVKGPTRSTELLDVVDLMLGTGMRIGEVLALRWSDVDLGEHPRLTVSGTLVPIKEKGLRRQAHTKTASGFRVLTLPAFVVEVLLRRSVESIPTETNAVFPSGAGTWKWPNNYRRALRAALKEMENTSGITPHVFRKSVATLIDAEATLEAAAAVLGHSGTGVTSAHYVAKAATAPDMSSILDQFGGNRIQKDG”: “failed”; for “MSRPTVSVIIPTHNRAKLLKRAIISVLNQTFEDFEIIVVDDASSDNTPNIIESIKDSRIRYIRLEKNSGAPTARNIGIKKARGKFIALLDDDDEWLPRKLEVQVKKFNELEKKFGVVYGGFYYVSQQNERIIGKRLPRFRGNVYGELLKENFIGSPTVLIRRECFKKAGLFDPKLPSSQDWDMWVRIARYYYFDYIVAKYYVHGHQISFNINEKYIPGREIFISKHKDIANNPKILSMHLTQMGLLSILGGNIEKGVKYLAQSITISPLNIDSYKKVIELTLDSRFLEYVKNILHANYLEHHHHHH”: “failed”. The same measure for “MSRRGLEREGGKPVSSDAKGLKRVDVRLKWDPSPWDRPPHHLDIIATTYAADAPHGRPVYVVQFDKRSPDGTINMSRHSRTGQGFGFVEEMTFELDRLSPSIARVIVGVAIHQDNGHKTFDDVSNTGVVVAEGYRELLTDGFERVAGATAATVAEFTRNASGAWEFREAVRGFDSDPVLFATEMGSAPRP”: “not failed”; for “MSRRRMSESLPPGVQVDPAAIEQLVGRPVDDLSHYRRALTHRSLLRVHPARTFRSNERLEFLGDALLDVFVGEVLYDRFPEKDEGALTRLRARLVSERPLATYARGLGLGPHLLMSENAAEGDGRDNPSILADAFEAFVGAVYLDLGHEAARGFVQDRVLAPVDLEDVATRDDNYKSQLLEHLQALGRPQPTYHVVEEKGPSHDKTFTVEVRVGDAAYERGTAGSKQDAEQQAARRTLDEMASDPPAS”: “failed”. Consider “MSRSFFAVLRDGKRYADKWPHHSVVAAMAESRIIPITRKAISWTPGIAVLNAALTWQFMPQEQLAPGLMLSLIMLSLPLQGLYWLGWRSRQPLKPMLRNWYKELRDKLRKQGVECQPQGEKGPEYMDLAIILRKALETLPPEEH”, for which the protein production result is “failed”. The same measure for “MSRSSSPPLAPARRTRGGHACLALAMVLAGSTVPASKLIAAEVAPFTATAIRLGLALPVFLLLMRATGARWPRPGRRDACLLALQAAAGSVGYTALLIAGLRLTSAADAAVVIGTLPAVTALLAMAVLRERPPPRTLAAIALAAAGVLVLVGGRTDDAPGSLAGNLLVLGAVVCEGLFILLSKRLRAPIAPLPLSAALTAIGAVLAGAAALAEAPWHAAFGSPALAVLAYYAWLPTVAGFVLWYAGLARASASEAALFTALAPVAAVLLAALALGETVGPRQAAGIGCVLAAVLALRPGGDKQSQKENIK”: “failed”. The same measure for “MSRTLVLFDIDGTLLKVESMNRRVLADALIEVYGTEGSTGSHDFSGKMDGAIIYEVLSNVGLERAEIADKFDKAKETYIALFRERARREDITLLEGVRELLDALSSRSDVLLGLLTGNFEASGRHKLKLPGIDHYFPFGAFADDALDRNELPHIALERARRMTGANYSPSQIVIIGDTEHDIRCARELDARSIAVATGNFTMEELARHKPGTLFKNFAETDEVLASILTPKHS”: “not failed”; for “MSRTTPYRLDDQIGFILRQANQRYAALFANGIGNGLTPTQWAALVRLGETGPCPQNQLGRLTAMDAATIKGVVERLDKRGLIQRSADPDDGRRLLVSLSPAGRAELEAGLAAAREINRQALAPLSLQEQETLRGLLARLI”: “not failed”; for “MSRVQMDTEEVREFVGHLERFKELLREEVNSLSNHFHNLESWRDARRDKFSEVLDNLKSTFNEFDEAAQEQIAWLKERIRVLEEDY”: “not failed”.

As to “MSRYIEAGLSDIGTLGEYVAERPNKGFEPARRRAGVSHTTVSGPKLAVAVMAVSAVCCPCGCQCVLVTPLSPRSFTLCAHIIDTMNTLVDGEWRTDAYETTNEDGAFDRQDTTFRDRVEDDPDARFQPEAGRYHLYACRACPWAHRILVARKLLGLEDAITVDYVDPFRGEDGWQFTPEKAGCTPDTVNGSDYLREVYVEADPDATCRVTVPVLWDKQEETIVNNESEEILRMLDTEFDDVSDNDVDLYPEGYQDEVDRIIDDIYEPINNGVYRSGFADSQSAYDEAVEELFDALDHWDTVLEDQRFLAGDRLTEADICLFTTLVRFDEVYHTHFMCNHKLIREYDNLWPYLRDLYQLPGVAETVNMDHITEHYYTTHPDVSPKRIVPMGPDPDFEAVHDRDELPGDLPETLFPTA”, the protein production entry was “failed”. As for “MSSACDAGDHYPLHLLVWKNDYRQLEKELQGQNVEAVDPRGRTLLHLAVSLGHLESARVLLRHKADVTKENRQGWTVLHEAVSTGDPEMVYTVLQHRDYHNTSMALEGVPELLQKILEAPDFYVQMKWEFTSWVPLVSRICPNDVCRIWKSGAKLRVDITLLGFENMSWIRGRRSFIFKGEDNWAELMEVNHDDKVVTTERFDLSQEMERLTLDLMKPKSREVERRLTSPVINTSLDTKNIAFERVFRVLKLTLLQLTVCS”, the entry is “failed”. In the case of “MSSAQVNGISKRLIVESPNVKLEDGVLESRFTYRKNHFEHRADGLHVTPKEHDYSFKTVLKPRKTGLLLVGLGGNNGSTAVGSIFANQYAMTWRTKEGHSQANYFGSVTQTATVHLGYDSATQNQIFVPFKDIVPILSPNDLIISGWDISDSNLYEAMGRAKVFEPELQEKLRPFMEPIVPLPSIYYPDFIASNQGDRANNVIPGDNKLEHLEHIRADIRKFKQEHELECVIVLWTANTERYTDVRQGLNATADEIMESIRVNEDEVSPSNIFAVASILEGAHYINGSPQNTLVPGLIELAERHKVFVGGDDFKSGQTKFKSAFVDFLVSSGMKPESIVSYNHLGNNDGKNLSEARQFRSKEISKSSVVDDMVKSNQILFPDAKNPDYCVVIKYVPYVADSKRAMDEYICSIFMGGKQTFVVHNTCEDSLLASPLIYDLAILTELASRVSYKVDDEYKPFHSVLSILSLLLKAPVVPPGTPISNAFMRQFSTLTKLVTALAGFPSDTDMQIEFFTQLPAAKSKSQ”, the protein production result is listed as “not failed”. The same measure for “MSSARLVIAGLNGGTGKTILSLGTVRALTNAGHSVKPFKKGPDYIDAEWLGLAAGRAATNLDPFFLDAARLQSLFLHASAGASISIIEGNRGLYDGRDVTGSCSTAELARILDSPVVLAMDCTKMTRTAAAILSGVAAFEPGVKLAGVVLNRTANERHRSMLRQCIEHYTDIPVLGALPRLRDNPIPERHMGLVSDREFAQCAGELDRVAQFVAQHVDVERMAEIARSAQPLASNEPFWPVVAEGDGVRPRIGYVRDAALWFYYEENLEALRQAGADLVELRIIDGDPWPTLDGLYLGGGFPETLASELSACRERLAGIREAALAGLPVYAECGGFMVLGESIVMDGVEYPMSGVFPVQTVFHPKPQGLGYVEAEVVAENPFFPQGMVFRGHEFHYSACRPRDGGAVTHALRLNPGTGMGGGADGLVQANTFAAYTHIFGPAVQGWAERFVRAARGHRDQLNKGTDLSLEHHHHHH”: “failed”; for “MSSCCAAEAKNASERKLLWIVLILNFSMFVIEFIAGWLANSSGLLADSLDMLADAAVYSLSLYAVGKSLLYKGRAALANGYLQLSLGLLVLVDVARRIWLGSEPQSELMLSIGFMALIVNMICFVLLYQFRQGDVNLKASWICSRNDMLANIGIIISAVLVGQFDAAWPDWVIGSVIAGIVIHSSLAIINEAKVSIQSDAVADKNRT”: “failed”. As for “MSSCGCAYDILKYQLVIKGNRFNEESEQSMTETTENTVNLPYRNPKLPTEERIADLLGRMTLEEKVGQMMQLDARSGDLDDLIVNKHVGSILHTSPSDLPKAVETVNAKTRLGIPLVIGDDCIHGYSFWPGATIFPEQLGMATTWDSEKVQAAGRATAEEVSATGVHWTFSPVLCIARDTRWGRVGETFGEDPYLIGEMASSIVKGYQGGAKAGEPLAKDAILACAKHFAGYSETQGGRDASEADLSHRKLESWFLPPFERVAKEGCGTFMLGYESIEGVPVTFNKWLLSDKLRGAWNYQGTLITDWDNVGRSVWEQKVKPDYVQAAADAVKSGNDLVMTTPKFYEGAIEAVKTGLLDESLIDAAVARILALKFRLGLFEDPRLPDQKRIDAVIGSEEHQQLNLEVAREAVALLKNDGSLPFNVAGAKRIAVVGPLADDVQTQLGDWAGSSGQINWMPDGHPREMITTVLDGFKQLAPEGCEVVYSRGANIVDLVPDPEGEFYPDGQPRPKIGVSAKIDRALLGEAVENARKSDLIVAVVGDVIQAIGEGCSTATLELLGGQNALIDALSNVARETGKPFVVVLVSSKPQVLPASVIGTNGVIVDETPAEGTSALLWAPSPGMKGGQAIAEIILGETEPSGRLPITFPRHAGQLPVYYNQIRGQHGNRYADLTQNPAFAFGEGLSYTTFEYGDPTITNVPESGIFAETDTVHAEITLTNTGDRKGTEVVQLYIGDIVTSYSWTDRELKAFQRVELEPGKSKTVAFDIPVSDCTIVDSEANRIVEPGEFEVLIGHSSRREHLKRTTFTVA”, the entry is “failed”; as for “MSSDAVSKYTPGIYRTSIRLNNNTFDVEVTVDQDQIQSIHLANLSESTSAMFPLVEPVLDSLSSQIYSGQSLDDLEYSSDQKYTALMLIHAIDEAVTKAEADLEHHHHHH”, “not failed”.
